# Reference: patent publication US7470669B2, “Isolated polypeptide comprising a leptin fragment” (Serono Genetics Institute, S.A., priority 1999, dated 2008)
# Molecular target: T1, LSR α (Homo sapiens, UniProt Q86X29)
# T1 construct: The full-length LSR α, α′, and β clones were reconstructed in pTracer-CMV2 vector; expressed in transfected cells; host or cells: CHO-K1, transient (Fugene), pTracer-CMV2
# T1 sequence (Q86X29 1-649): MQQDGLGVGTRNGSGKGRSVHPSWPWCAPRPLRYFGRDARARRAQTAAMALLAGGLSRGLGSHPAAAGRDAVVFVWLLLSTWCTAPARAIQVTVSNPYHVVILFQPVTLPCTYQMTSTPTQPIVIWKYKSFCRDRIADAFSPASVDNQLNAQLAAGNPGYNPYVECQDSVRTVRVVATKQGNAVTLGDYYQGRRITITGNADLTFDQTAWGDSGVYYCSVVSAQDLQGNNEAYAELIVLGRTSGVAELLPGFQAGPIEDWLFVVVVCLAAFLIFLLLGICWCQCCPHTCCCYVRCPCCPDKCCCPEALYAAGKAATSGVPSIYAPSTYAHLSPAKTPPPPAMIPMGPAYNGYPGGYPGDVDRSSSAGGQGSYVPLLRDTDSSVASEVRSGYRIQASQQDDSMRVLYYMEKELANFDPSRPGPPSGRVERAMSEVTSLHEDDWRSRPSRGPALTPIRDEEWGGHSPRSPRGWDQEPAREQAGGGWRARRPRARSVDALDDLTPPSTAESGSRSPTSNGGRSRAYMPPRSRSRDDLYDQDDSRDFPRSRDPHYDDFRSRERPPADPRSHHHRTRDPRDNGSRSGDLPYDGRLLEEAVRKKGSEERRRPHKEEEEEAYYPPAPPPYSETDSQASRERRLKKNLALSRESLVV
# Assay: 125I-leptin binding in CHO-K1 cells transiently transfected with LSR α
# Assay type: cell-based
# Conditions: transient transfection with LSR α plasmid; 10 ng/mL 125I-leptin
# Experimental: FIGS. 3A, 3B, 3C, and 3D show the effect of LSR subunit transfection on leptin binding and degradation in CHO-K1 cells. For FIG. 3A, CHO-K1 cells were transfected with increasing concentrations of the α, (□), α′ (▪) or β (◯) LSR plasmid, or vector alone (●) using Fugene transfection reagent. After 48 h, the cells were washed once in PBS and incubated at 37° C. for 2 h with 10 ng/mL of ^125I-leptin in DMEM containing 0.2% (w/v) BSA, 2 mM CaCl2 and 5 mM HEPES, pH 7.4 (Buffer A). The monolayers were washed and lysed with 0.1 N NaOH containing 0.24 mM EDTA, and the lysates were counted. The results are shown as the amount of cell-associated ^125I-leptin. For FIG. 3B, lysates were prepared from CHO-K1 wild type, stable transfectants of vector or LSR α′ subunit, and PLC, and separated on a 10% SDS-polyacrylamide gel under denaturing and reduced conditions. After transfer to nitrocellulose, Western blots were performed using anti-LSR 170 antibody (can also be done with the human equivalent, 93A). […] For FIGS. 3C and 3D, confluent monolayers of stable-transfected cell lines expressing LSR α′ subunit (▪) or vector alone (●) were washed once in PBS and incubated at 37° C. for 2 h with increasing concentrations of ^125I-leptin in Buffer A. The amount of cell-associated (FIG. 3C) and degraded (FIG. 3D) ^125I-leptin was then measured as described herein. […]
substance,measurement,value
"leptin: plasma protein of 16 kDa produced by adipocytes; recombinant human or mouse leptin, species depends on the experiment",Leptin binding to CHO-K1 cells,remained at levels similar to those seen with the vector alone
